For orientation: Ki means the dissociation constant of the complex between target and ligand, obtained from inhibition or displacement. Read a high Ki as lower affinity.

Test [1] deals with GroEL (untagged, from pET15b, for quantitative binding studies) (E. coli, UniProt P0A6F5 1-548). The test is described as follows: other fluorescence titration.
The target of test [2] is GroEL_(R452A/E461A/S463A/V464A) (E. coli, UniProt P0A6F5 1-548, R452A | E461A | S463A | V464A). The test is described as follows: SEC. For orientation: SEC sorts molecules by how far they enter the pores of the column.
The target of test [3] is GroEL (wild type, recombinant, from pET22b-groL) (E. coli, UniProt P0A6F5 1-548). Description: SEC.

B1: GroES (for quantitative binding studies, His tag removed) (natural protein, E. coli)
chain: MNIRPLHDRVIVKRKEVETKSAGGIVLTGSAAAKSTRGEVLAVGNGRILENGEVKPLDVKVGDIVIFNDGYGVKSEKIDNEEVLIMSESDILAIVEA
Regarding B1, in test [1], the Ki stood at 47 nM.

B2: CnoX (wild type, recombinant, from pET22b-cnoX) (natural protein, E. coli)
chain: MSVENIVNINESNLQQVLEQSMTTPVLFYFWSERSQHCLQLTPILESLAAQYNGQFILAKLDCDAEQMIAAQFGLRAIPTVYLFQNGQPVDGFQGPQPEEAIRALLDKVLPREEELKAQQAMQLMQESNYTDALPLLKDAWQLSNQNGEIGLLLAETLIALNRSEDAEAVLKTIPLQDQDTRYQGLVAQIELLKQAADTPEIQQLQQQVAENPEDAALATQLALQLHQVGRNEEALELLFGHLRKDLTAADGQTRKTFQEILAALGTGDALASKYRRQLYALLY
With B2, the binding result in test [2] is listed as “binds”.

B3: Citrate synthase (CS) from pig hearts, chemically unfolded (enzyme, UniProt P00889 28-464, looked up)
chain: ASSTNLKDILADLIPKEQARIKTFRQQHGNTVVGQITVDMMYGGMRGMKGLVYETSVLDPDEGIRFRGYSIPECQKMLPKAKGGEEPLPEGLFWLLVTGQIPTEEQVSWLSKEWAKRAALPSHVVTMLDNFPTNLHPMSQLSAAITALNSESNFARAYAEGIHRTKYWELIYEDCMDLIAKLPCVAAKIYRNLYREGSSIGAIDSKLDWSHNFTNMLGYTDAQFTELMRLYLTIHSDHEGGNVSAHTSHLVGSALSDPYLSFAAAMNGLAGPLHGLANQEVLVWLTQLQKEVGKDVSDEKLRDYIWNTLNSGRVVPGYGHAVLRKTDPRYTCQREFALKHLPHDPMFKLVAQLYKIVPNVLLEQGKAKNPWPNVDAHSGVLLQYYGMTEMNYYTVLFGVSRALGVLAQLIWSRALGFPLERPKSMSTDGLIKLVDSK
B3: in test [3], the binding result is given as “binds”.

Source of the values: PMC10044410 (Cell, 2023).
